Source: the supplement of paper PMC9233669
Fewer inactive variants are shown than the library holds.

How the values were obtained:
[1] = test system: biotinyl-Phe-oxazolone; experiment: self-aminoacylation, catalytic enhancement (BFO) (fold over background); higher = more active; k-Seq, kA / k0A0; sequences stand for … in GGGAAUGGAUCCACAUCUACGAAUUC…UUCACUGCAGACUUGACGAAGCUG
Outline: (§1)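 Catalytic enhancement equals the median kA over the uncatalyzed rate, the latter read from the low-activity peak of a bimodal Gaussian fit. Values of kA came from fitting each sequence's fraction reacted to a pseudo-first-order model, with 1000 bootstraps. Reacted RNA was captured with streptavidin and quantified by triplicate qPCR and Illumina sequencing after 90 minutes at room temperature with 2–1250 μM biotinyl-aminoacyl-oxazolone and 0.43 μM mutagenized RNA pools bearing a 21-nt variable region.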

[2] = test system: biotinyl-Ile-oxazolone; experiment: self-aminoacylation, catalytic enhancement (BIO) (fold over background); higher = more active; k-Seq, kA / k0A0; sequences stand for … in GGGAAUGGAUCCACAUCUACGAAUUC…UUCACUGCAGACUUGACGAAGCUG
Outline: as §1

[3] = test system: biotinyl-Met-oxazolone; experiment: self-aminoacylation, catalytic enhancement (BMO) (fold over background); higher = more active; k-Seq, kA / k0A0; sequences stand for … in GGGAAUGGAUCCACAUCUACGAAUUC…UUCACUGCAGACUUGACGAAGCUG
Outline: as §1

[4] = test system: biotinyl-Val-oxazolone; experiment: self-aminoacylation, catalytic enhancement (BVO) (fold over background); higher = more active; k-Seq, kA / k0A0; sequences stand for … in GGGAAUGGAUCCACAUCUACGAAUUC…UUCACUGCAGACUUGACGAAGCUG
Outline: as §1

[5] = test system: biotinyl-Leu-oxazolone; experiment: self-aminoacylation, catalytic enhancement (BLO) (fold over background); higher = more active; k-Seq, kA / k0A0; sequences stand for … in GGGAAUGGAUCCACAUCUACGAAUUC…UUCACUGCAGACUUGACGAAGCUG
Outline: as §1

[6] = test system: biotinyl-Trp-oxazolone; experiment: self-aminoacylation, catalytic enhancement (BWO) (fold over background); higher = more active; k-Seq, kA / k0A0; sequences stand for … in GGGAAUGGAUCCACAUCUACGAAUUC…UUCACUGCAGACUUGACGAAGCUG
Outline: as §1

Sequence	self-aminoacylation [1]	self-aminoacylation [2]	self-aminoacylation [3]	self-aminoacylation [4]	self-aminoacylation [5]	self-aminoacylation [6]
AUUACCCUGGUCAUCCAAUGA [Fam2.1 aminoacylation ribozyme variant]	1.66	0.938	1.2	0.942	1.47	0.429
AUUACCCUGGUCAUCCAGGGA [Fam2.1 aminoacylation ribozyme variant]	7.32	1.91	2.82	1.67	1.84	2.26
AUUACCCUGGUCAUCGAGAUA [Fam2.1 aminoacylation ribozyme variant]	7.71	1.78	3.42	2.2	3.19	3.19
AUUACCCUGGUCAUCGAGUAC [Fam2.1 aminoacylation ribozyme variant]	17.2	2.32	6.05	3.03	5.94	4.57
AUUACCCUGGUCAUCGAGUAU [Fam2.1 aminoacylation ribozyme variant]	97.7	8	26.9	9.24	23.6	24.4
AUUACCCUGGUCAUCGAGUGA [Fam2.1 aminoacylation ribozyme variant]	657	34.6	91.3	37.9	86.9	99.1
AUUACCCUGGUCAUCGAGUGC [Fam2.1 aminoacylation ribozyme variant]	24.9	3.92	11.4	4.71	10.9	8.98
AUUACCCUGGUCAUCGAGUGG [Fam2.1 aminoacylation ribozyme variant]	361	16.3	56.9	18.5	55.4	52.1
AUUACCCUGGUCAUCGAGUUC [Fam2.1 aminoacylation ribozyme variant]	4.38	1.02	1.88	1.53	2.17	1.54
AUUACCCUGGUCAUCGAGUUU [Fam2.1 aminoacylation ribozyme variant]	14.8	3.52	7.8	4.61	7.87	6.31
AUUACCCUGGUCAUCGAUAGA [Fam2.1 aminoacylation ribozyme variant]	0.5	0.721	0.638	0.77	0.537	1.23
AUUACCCUGGUCAUCGCGAGA [Fam2.1 aminoacylation ribozyme variant]	1.58	2.17	1.68	2.21	1.44	2.72
AUUACCCUGGUCAUCGCGCGA [Fam2.1 aminoacylation ribozyme variant]	36.7	5.07	4.45	5.24	6.23	3.18
AUUACCCUGGUCAUCGCGUGC [Fam2.1 aminoacylation ribozyme variant]	16.8	2.81	3.35	2.75	4.64	4.47
AUUACCCUGGUCAUCGGCUGA [Fam2.1 aminoacylation ribozyme variant]	4.87	2.74	1.54	3.04	2.77	2.77
AUUACCCUGGUCAUCGGGUAA [Fam2.1 aminoacylation ribozyme variant]	208	11.4	35.6	16	38.2	42.4
AUUACCCUGGUCAUCGGGUGC [Fam2.1 aminoacylation ribozyme variant]	211	13.4	39.2	18.9	52.5	48.7
AUUACCCUGGUCAUCGUCUGA [Fam2.1 aminoacylation ribozyme variant]	0.374	0.88	0.842	0.817	0.907	0.531
AUUACCCUGGUCAUCUAGUCA [Fam2.1 aminoacylation ribozyme variant]	0.712	0.753	0.578	0.827	0.616	0.455
AUUACCCUGGUCAUCUAGUGA [Fam2.1 aminoacylation ribozyme variant]	42.9	4.51	9.61	4.83	9.15	11.3
AUUACCCUGGUCAUCUUGUGA [Fam2.1 aminoacylation ribozyme variant]	22.6	2.27	4.75	2.33	4.41	4.57
AUUACCCUGGUCAUGAAGUGA [Fam2.1 aminoacylation ribozyme variant]	44.8	4.14	8.83	4.08	7.74	10.1
AUUACCCUGGUCAUGGAAUGA [Fam2.1 aminoacylation ribozyme variant]	1.95	1.19	1.53	1.21	1.17	2.08
AUUACCCUGGUCAUGGAGAGA [Fam2.1 aminoacylation ribozyme variant]	1.19	0.877	0.941	1.18	1.2	1.77
AUUACCCUGGUCAUGGUGUGA [Fam2.1 aminoacylation ribozyme variant]	4.16	1.27	1.64	1.18	1.84	2.24
AUUACCCUGGUCAUUAAGUGA [Fam2.1 aminoacylation ribozyme variant]	55.5	4.88	11.2	5.31	10.3	13.4

Sequence	self-aminoacylation [1]	self-aminoacylation [2]	self-aminoacylation [3]	self-aminoacylation [4]	self-aminoacylation [5]	self-aminoacylation [6]
AUUACCCUGGUCAUUGAGCGA [Fam2.1 aminoacylation ribozyme variant]	4.43	1.45	1.16	1.41	1.44	1.66
AUUACCCUGGUCCUCAAGUGA [Fam2.1 aminoacylation ribozyme variant]	7.45	1.64	2.16	2.02	2.29	3.02
AUUACCCUGGUCCUCGAGUGC [Fam2.1 aminoacylation ribozyme variant]	2.51	0.969	0.658	1.06	1.07	1.31
AUUACCCUGGUCGACGAGUGA [Fam2.1 aminoacylation ribozyme variant]	26.4	2.86	5.53	3.33	5.32	6.05
AUUACCCUGGUCGGCGAGUGA [Fam2.1 aminoacylation ribozyme variant]	53.6	5.39	7.37	5.03	9.02	8.06
AUUACCCUGGUCGUAGAGUGA [Fam2.1 aminoacylation ribozyme variant]	3.08	1.17	1.28	1.09	1.84	2.26
AUUACCCUGGUCGUCGAGUAA [Fam2.1 aminoacylation ribozyme variant]	1.08	1.27	1.3	1.12	1.68	0.721
AUUACCCUGGUCGUCGAGUCA [Fam2.1 aminoacylation ribozyme variant]	0.524	1.05	0.904	1.05	0.956	0.444
AUUACCCUGGUCUCCGAGUGA [Fam2.1 aminoacylation ribozyme variant]	64.4	3.95	7.41	4.33	8.91	9.46
AUUACCCUGGUCUUCAAGUGA [Fam2.1 aminoacylation ribozyme variant]	23.8	2.76	4.91	2.67	4.28	5.67
AUUACCCUGGUCUUCCAGUGA [Fam2.1 aminoacylation ribozyme variant]	31.7	3.79	5.48	3.51	5.94	6.46
AUUACCCUGGUCUUCGAGUCA [Fam2.1 aminoacylation ribozyme variant]	0.638	0.953	0.844	0.873	0.903	0.688
AUUACCCUGGUCUUCGAGUGG [Fam2.1 aminoacylation ribozyme variant]	4.91	0.992	1.34	1.07	1.69	0.855
AUUACCCUGGUCUUCGCGUGA [Fam2.1 aminoacylation ribozyme variant]	55.2	5.89	9.58	6.16	9.77	11.5
AUUACCCUGGUCUUCGUGUGA [Fam2.1 aminoacylation ribozyme variant]	7.45	1.05	1.46	1.02	1.45	1.93
AUUACCCUGGUGAUCGCGUGA [Fam2.1 aminoacylation ribozyme variant]	44.2	3.45	4.66	4.19	4.38	6.27
AUUACCCUGGUGCUCGAGUGA [Fam2.1 aminoacylation ribozyme variant]	25	2.14	3.93	2.38	4.67	5.2
AUUACCCUGGUGUUCGAGUGA [Fam2.1 aminoacylation ribozyme variant]	45.5	2.73	5.65	3.21	6.71	7.61
AUUACCCUGGUUAUCGAGUAA [Fam2.1 aminoacylation ribozyme variant]	1.44	1.31	1.44	1.24	1.32	1.89
AUUACCCUGGUUAUCGAGUGA [Fam2.1 aminoacylation ribozyme variant]	25.2	3.83	8.65	4.27	8.64	10.3
AUUACCCUGGUUAUCGGGUGA [Fam2.1 aminoacylation ribozyme variant]	94.3	5.12	12.8	6.66	13.6	14.8
AUUACCCUGUUAAUCGAGUGA [Fam2.1 aminoacylation ribozyme variant]	54.5	4.91	9.91	5.36	9.68	13.4
AUUACCCUGUUCACCGAGUGA [Fam2.1 aminoacylation ribozyme variant]	77.2	4.79	11	5	11.6	12.7
AUUACCCUGUUCAUCCAGUGA [Fam2.1 aminoacylation ribozyme variant]	23	3.76	5.95	3.52	5.85	8.43
AUUACCCUGUUCAUCGAGUGA [Fam2.1 aminoacylation ribozyme variant]	16.6	2.97	5.57	3.22	5.44	7.34
